Results taken from IntAct's records for PubMed 15975580.

Molecular target: zo2_human TJP2 (UniProt Q9UDY2)
Sequence (Q9UDY2 whole entry): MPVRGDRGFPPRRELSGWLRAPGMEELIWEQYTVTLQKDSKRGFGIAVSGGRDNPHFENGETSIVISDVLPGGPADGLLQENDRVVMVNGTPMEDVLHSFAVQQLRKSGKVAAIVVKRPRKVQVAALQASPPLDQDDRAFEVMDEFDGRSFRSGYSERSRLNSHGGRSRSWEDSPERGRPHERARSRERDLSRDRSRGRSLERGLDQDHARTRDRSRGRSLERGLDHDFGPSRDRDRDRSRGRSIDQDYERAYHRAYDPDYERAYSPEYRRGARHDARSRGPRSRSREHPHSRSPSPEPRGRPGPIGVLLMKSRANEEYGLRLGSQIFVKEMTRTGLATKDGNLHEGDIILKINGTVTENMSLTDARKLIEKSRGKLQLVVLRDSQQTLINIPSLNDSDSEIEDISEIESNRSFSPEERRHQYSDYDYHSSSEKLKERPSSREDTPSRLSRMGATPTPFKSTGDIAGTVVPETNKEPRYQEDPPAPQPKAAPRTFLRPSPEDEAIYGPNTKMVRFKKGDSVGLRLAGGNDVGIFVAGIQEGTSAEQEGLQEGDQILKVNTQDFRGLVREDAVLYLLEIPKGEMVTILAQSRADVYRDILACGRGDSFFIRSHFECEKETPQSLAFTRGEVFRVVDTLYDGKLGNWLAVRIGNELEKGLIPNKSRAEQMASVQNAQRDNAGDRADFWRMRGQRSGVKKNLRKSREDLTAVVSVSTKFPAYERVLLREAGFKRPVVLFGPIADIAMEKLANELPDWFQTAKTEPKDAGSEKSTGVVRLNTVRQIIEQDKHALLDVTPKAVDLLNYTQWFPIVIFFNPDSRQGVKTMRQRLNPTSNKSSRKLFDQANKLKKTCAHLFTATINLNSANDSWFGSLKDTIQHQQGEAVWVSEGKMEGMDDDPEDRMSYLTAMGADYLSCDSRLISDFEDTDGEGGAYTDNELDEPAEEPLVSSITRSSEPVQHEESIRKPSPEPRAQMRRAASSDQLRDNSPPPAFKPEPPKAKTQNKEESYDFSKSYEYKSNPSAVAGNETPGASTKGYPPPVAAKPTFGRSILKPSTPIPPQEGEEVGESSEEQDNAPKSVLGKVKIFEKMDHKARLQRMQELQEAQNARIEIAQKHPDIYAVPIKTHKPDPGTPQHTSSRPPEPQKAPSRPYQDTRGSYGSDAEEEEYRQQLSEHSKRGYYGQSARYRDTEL

Chain of Protein scribble homolog (Homo sapiens), Q14160-1 P305L (Q14160 other isoform, or with tags, fused parts or gaps P305L): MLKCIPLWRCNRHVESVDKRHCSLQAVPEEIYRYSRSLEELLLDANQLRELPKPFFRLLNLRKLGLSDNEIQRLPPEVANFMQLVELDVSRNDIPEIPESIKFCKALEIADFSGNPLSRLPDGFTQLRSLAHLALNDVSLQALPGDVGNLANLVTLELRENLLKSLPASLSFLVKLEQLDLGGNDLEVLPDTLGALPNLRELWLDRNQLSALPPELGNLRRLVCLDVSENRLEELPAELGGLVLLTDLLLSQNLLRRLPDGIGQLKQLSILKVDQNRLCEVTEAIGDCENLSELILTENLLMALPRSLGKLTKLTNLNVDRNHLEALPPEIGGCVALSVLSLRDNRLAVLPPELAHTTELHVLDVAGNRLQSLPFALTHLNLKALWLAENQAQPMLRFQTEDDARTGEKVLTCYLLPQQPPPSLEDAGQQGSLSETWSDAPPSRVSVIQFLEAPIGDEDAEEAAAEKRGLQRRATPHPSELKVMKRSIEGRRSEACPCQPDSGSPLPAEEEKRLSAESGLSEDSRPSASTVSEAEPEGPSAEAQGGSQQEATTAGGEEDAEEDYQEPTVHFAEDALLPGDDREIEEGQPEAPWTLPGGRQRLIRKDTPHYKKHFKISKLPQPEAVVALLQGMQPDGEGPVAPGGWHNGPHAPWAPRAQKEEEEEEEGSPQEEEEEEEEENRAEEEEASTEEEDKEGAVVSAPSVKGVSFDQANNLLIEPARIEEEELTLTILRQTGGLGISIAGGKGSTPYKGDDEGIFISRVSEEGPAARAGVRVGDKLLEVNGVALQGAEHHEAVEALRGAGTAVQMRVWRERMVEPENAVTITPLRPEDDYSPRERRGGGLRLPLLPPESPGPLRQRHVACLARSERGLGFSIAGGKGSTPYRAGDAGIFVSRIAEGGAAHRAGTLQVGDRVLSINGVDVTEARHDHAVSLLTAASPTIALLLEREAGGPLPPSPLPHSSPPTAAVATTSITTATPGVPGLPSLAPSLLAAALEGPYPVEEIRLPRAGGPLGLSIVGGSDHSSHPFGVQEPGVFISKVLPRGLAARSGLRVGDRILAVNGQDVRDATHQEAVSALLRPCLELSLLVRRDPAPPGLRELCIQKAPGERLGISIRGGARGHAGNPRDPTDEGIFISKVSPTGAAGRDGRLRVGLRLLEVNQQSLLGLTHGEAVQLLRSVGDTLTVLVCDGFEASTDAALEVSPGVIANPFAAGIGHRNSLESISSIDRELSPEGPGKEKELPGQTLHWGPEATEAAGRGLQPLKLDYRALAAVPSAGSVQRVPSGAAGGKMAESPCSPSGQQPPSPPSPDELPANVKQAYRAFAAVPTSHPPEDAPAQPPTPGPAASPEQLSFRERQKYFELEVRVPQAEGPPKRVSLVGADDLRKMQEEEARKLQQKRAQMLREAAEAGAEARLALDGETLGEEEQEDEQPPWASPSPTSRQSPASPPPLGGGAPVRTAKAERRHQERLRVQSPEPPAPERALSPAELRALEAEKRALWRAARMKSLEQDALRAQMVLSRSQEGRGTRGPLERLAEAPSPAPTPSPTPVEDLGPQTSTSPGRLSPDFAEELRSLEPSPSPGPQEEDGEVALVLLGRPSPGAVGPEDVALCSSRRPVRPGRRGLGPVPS

- effect of a mutation on the interaction: decreasing interaction
Substance: Protein scribble homolog (Homo sapiens), Q14160-1 P305L
